# Measurements: patent publication US20240010753A1 (EPIMAB BIOTHERAPEUTICS HK, published 2024)
# Positions count from the first letter of the chain named.
# B1: FIT1007-12B (bispecific antibody, human IgG1, kappa, L234A L235A)
# chain 1: not shown
# chain 2: QVQLQQSGPELVKPGASVKISCKASGYAFSRSWMNWVKQRPEKGLEWIGRIYPGNGDIKYNGNFKGKATLTADKSSSTAYMQLSSLTSEDSAVYFCAHIYYDFYYALDYWGQGTSVTVSSASTKGPSVFPLAPSSKSTSGGTAALGCLVKDYFPEPVTVSWNSGALTSGVHTFPAVLQSSGLYSLSSVVTVPSSSLGTQTYICNVNHKPSNTKVDKKVEPKSC
# chain 3: not shown
# notes: also called parental chimeric FIT-Ig; chimeric antibody (FIT1007-12B)
# B2: FIT1007-12B-15 (bispecific antibody, human IgG1, kappa, L234A L235A)
# chain 1: not shown
# chain 2: B1 chain 2 with G56A, N61Q
# chain 3: not shown
# notes: Chimeric ROR1 arm with CDR-H2 point mutations (AQ); ROR1xCD3 FIT-Ig, no linkers
# Tests used:
# [1] = target: T1, recombinant human ROR1-ECD protein (human, UniProt Q01973 30-406); test: BLI (Octet RED96), FIT-Ig captured on anti-hIgG Fc sensors, ROR1 ECD at 10 ug/ml; the reference itself
# T1 construct: also called human ROR1 extracellular domain
# Method: (§1) The ROR1/CD3 FIT-Ig proteins were assayed for and ranked by dissociation rate constant (koff, “off-rate”) using an Octet®RED96 biolayer interferometry (Pall FortéBio LLC). Anti-hIgG Fc Capture (AHC) Biosensors (Pall) were first exposed to antibody at a concentration of 100 nM for 30 seconds to capture antibody, then dipped into running buffer (1× pH 7.2 PBS, 0.05% Tween 20, 0.1% BSA) for 60 seconds to check baseline. Sensors with captured antibody were dipped into recombinant human ROR1 ECD protein at 10 ug/ml for 5 minutes to measure association, followed by dipped into running buffer for 1200 seconds to measure dissociation. The association and dissociation curves were fitted to a 1:1 Langmuir binding model using ForteBio Data Analysis software (Pall). The off-rate ratios were calculated by the off-rate of antibody to that of FIT1007-12B. Lower ratio indicates slower dissociation of the antibody in comparison with the parental chimeric antibody FIT1007-12B.
# [2] = target: T1, recombinant human ROR1-ECD protein; test: BLI (Octet), 6 ROR1 antigen concentrations, 3 fold diluted from 500 nM
# Method: as §1
# ROR1 binding affinity/kinetics of the humanized candidate FIT1007-12B-17 and its parental chimeric FIT-Ig FIT1007-12B were measured using the same method as described in Example 3. For each antibody, measurements were titrated by 6 antigen concentrations, i.e., 3 fold diluted from 500 nM. Binding kinetics of FIT1007-12B-18, MAT1007-12B-17 and MAT1007-12B-18 are similar to those of FIT1007-12B-17. These candidates share the same ROR1 binding Fab.
# [3] = target: T1, recombinant human ROR1-ECD protein; test: BLI (Octet RED96), FIT-Ig captured on anti-hIgG Fc sensors, ROR1 ECD in solution
# Method: as §1
# T1 sequence (Q01973 30-406): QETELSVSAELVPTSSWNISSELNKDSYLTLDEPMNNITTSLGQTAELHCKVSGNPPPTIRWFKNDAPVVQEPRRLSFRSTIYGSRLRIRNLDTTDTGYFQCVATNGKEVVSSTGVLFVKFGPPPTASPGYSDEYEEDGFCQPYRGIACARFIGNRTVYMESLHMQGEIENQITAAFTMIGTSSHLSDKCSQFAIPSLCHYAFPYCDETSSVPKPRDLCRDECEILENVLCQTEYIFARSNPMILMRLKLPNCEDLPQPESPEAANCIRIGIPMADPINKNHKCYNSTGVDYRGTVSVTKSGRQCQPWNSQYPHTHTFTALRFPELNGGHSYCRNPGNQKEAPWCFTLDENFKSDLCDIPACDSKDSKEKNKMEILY
Binder,Off-rate Ratio [1],Kd [2],koff [2],kon [2],binding result [3]
B1,100%,5.67 nM,0.00103 s⁻¹,182000 M⁻¹ s⁻¹,–
B2,–,–,–,–,no binding (tested: 10 ug/ml)
